Publication PMC7102954, “A crucial RNA-binding lysine residue in the Nab3 RRM domain undergoes SET1 and SET3-responsive methylation”

Key:
Conditions in all cases: protein: recombinant; tags: N-terminal His6 (pET28a)
Nab3 RRM S399A = target: T1, Nab3 RRM S399A (Saccharomyces cerevisiae, UniProt P38996 329-419, S399A); test: pull-down (streptavidin, anti-His blot); 25 uM RNA; 10 mM Tris-HCl pH 7.8, 50 mM NaCl, 1 mM EDTA, 5% glycerol, 2.5 mM DTT; 30 min at 15 C, then beads 2 h at 4 C; washes with 0.1% Tween-20
T1 sequence: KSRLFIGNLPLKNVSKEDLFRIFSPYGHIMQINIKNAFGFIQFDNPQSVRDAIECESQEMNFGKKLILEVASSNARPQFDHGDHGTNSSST

Nab3 RRM K363A = target: T2, Nab3 RRM K363A (Saccharomyces cerevisiae, UniProt P38996 329-419, K363A); test: as above
T2 sequence: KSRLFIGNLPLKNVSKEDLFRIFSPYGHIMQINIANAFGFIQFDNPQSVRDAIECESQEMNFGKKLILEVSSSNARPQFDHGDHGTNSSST

Nab3 RRM = target: T3, Nab3 RRM (Saccharomyces cerevisiae, UniProt P38996 329-419); test: pull-down (streptavidin, anti-His blot densitometry); 25 uM RNA; protein 0-60 uM; apparent Kd; 10 mM Tris-HCl pH 7.8, 50 mM NaCl, 1 mM EDTA, 5% glycerol, 2.5 mM DTT; 30 min at 15 C, then beads 2 h at 4 C; washes with 0.1% Tween-20
T3 sequence: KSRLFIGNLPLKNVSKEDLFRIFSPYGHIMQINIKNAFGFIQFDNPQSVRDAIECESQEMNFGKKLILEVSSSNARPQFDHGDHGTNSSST

Nab3 RRM K363R = target: T4, Nab3 RRM K363R (Saccharomyces cerevisiae, UniProt P38996 329-419, K363R); test: as above
T4 sequence: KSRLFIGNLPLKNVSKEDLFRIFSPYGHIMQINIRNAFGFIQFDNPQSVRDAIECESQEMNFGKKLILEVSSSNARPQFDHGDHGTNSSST

UUUCUUUUUUCUUAUUCUUAUU (ssRNA) [snR47 RNA probe]
binding result (Nab3 RRM S399A): no binding | binding result (Nab3 RRM K363A): no binding | Kd (Nab3 RRM): 13.7 µM | Kd (Nab3 RRM K363R): 41.9 µM
